Reference: US20210269480A1 (published 2021)
*1 amine or outer side, *2 acyl side, *3 side chain or, on linkers, in order; H or OH if unused. Bridges are numbered along the chain shown (N, C = ends). Where no end group is shown, it is not given here. [ ]: non-standard residue; d: D form. TATA = O=C(CC[*:1])N1CN(C(=O)CC[*:2])CN(C(=O)CC[*:3])C1; Phe(4-COOH) = N[C@@H](Cc1ccc(C(=O)O)cc1)C(=O)O; 1Nal = N[C@@H](Cc1cccc2ccccc12)C(=O)O; 2Nal = N[C@@H](Cc1ccc2ccccc2c1)C(=O)O; hArg = N=C(N)NCCCC[C@H](N)C(=O)O; 2Pal = N[C@@H](Cc1ccccn1)C(=O)O; Aze = O=C(O)[C@@H]1CCN1; βAla = NCCC(=O)O; Sar = CNCC(=O)O

B1: BCY7611 (peptide)
peptide: Ac-CPFK(Ac)CMKNWSWPIWC
modifications: linker 1-5-15 via TATA
B2: BCY7620 (peptide)
peptide: Ac-CP[2Pal]GCMKNWSWPIWC
modifications: linker 1-5-15 via TATA
B3: BCY7392 (peptide)
peptide: Ac-QKWCAPLSDYWCNRIC
modifications: linker 4-12-16 via TATA
B4: BCY7623 (peptide)
peptide: Ac-QAWCAPLSDYWCNRIC
modifications: linker 4-12-16 via TATA
B5: BCY7624 (peptide)
peptide: Ac-QKACAPLSDYWCNRIC
modifications: linker 4-12-16 via TATA
B6: BCY7627 (peptide)
peptide: Ac-QKWCAPLADYWCNRIC
modifications: linker 4-12-16 via TATA
B7: BCY7625 (peptide)
peptide: Ac-QKWCAALSDYWCNRIC
modifications: linker 4-12-16 via TATA
B8: BCY7635 (peptide)
peptide: Ac-Q[dA]WCAPLSDYWCNRIC
modifications: linker 4-12-16 via TATA
B9: BCY7631 (peptide)
peptide: Ac-QKWCAPLSDYWCARIC
modifications: linker 4-12-16 via TATA
B10: BCY7636 (peptide)
peptide: Ac-QK[dA]CAPLSDYWCNRIC
modifications: linker 4-12-16 via TATA
B11: BCY7632 (peptide)
peptide: Ac-QKWCAPLSDYWCNAIC
modifications: linker 4-12-16 via TATA
B12: BCY7993 (peptide)
peptide: Ac-Q[dD]WCAPLSDYWCNRIC
modifications: linker 4-12-16 via TATA
B13: BCY7622 (peptide)
peptide: Ac-AKWCAPLSDYWCNRIC
modifications: linker 4-12-16 via TATA
B14: BCY7634 (peptide)
peptide: Ac-[dA]KWCAPLSDYWCNRIC
modifications: linker 4-12-16 via TATA
B15: BCY7793 (peptide)
peptide: CPF[dD]CM[hArg]NWSTPIWC
modifications: linker 1-5-15 via TATA
B16: BCY7660 (peptide)
peptide: Ac-CPFGCM[hArg]NWSWPIWC
modifications: linker 1-5-15 via TATA
B17: BCY7606 (peptide)
peptide: Ac-[dD]CPFGCMKNWSWPIWC
modifications: linker 2-6-16 via TATA
B18: BCY7663 (peptide)
peptide: Ac-CPFGCMKN[1Nal]SWPIWC
modifications: linker 1-5-15 via TATA
B19: BCY430 (peptide)
peptide: ACWPLDPYWCGRICA
modifications: linker 2-10-14 via TATA
B20: BCY7667 (peptide)
peptide: Ac-CPFGCMKNWSWPI[2Nal]C
modifications: linker 1-5-15 via TATA
B21: BCY7656 (peptide)
peptide: Ac-[Phe(4-COOH)]CPFGCMKNWSWPIWC
modifications: linker 2-6-16 via TATA
B22: BCY428 (peptide)
peptide: ACPFGCMKNWSWPIWCA
modifications: linker 2-6-16 via TATA
notes: also called 80-09-02-N002
B23: BCY7664 (peptide)
peptide: Ac-CPFGCMKN[2Nal]SWPIWC
modifications: linker 1-5-15 via TATA
B24: BCY7640 (peptide)
peptide: QKWCAPLSXYWCNRIC
modifications: N-terminal Ac; TATA on 3 Cys
B25: BCY7390 (peptide)
peptide: Ac-CPFGCMKNWSWPIWC
modifications: linker 1-5-15 via TATA
notes: also called 80-09-02-N008
B26: BCY7607 (peptide)
peptide: Ac-CGFGCMKNWSWPIWC
modifications: linker 1-5-15 via TATA
B27: BCY7590 (peptide)
peptide: Ac-CPFGCMKNWSYPIWC
modifications: linker 1-5-15 via TATA
B28: BCY7662 (peptide)
peptide: Ac-CPFGCMKHWSWPIWC
modifications: linker 1-5-15 via TATA
notes: also called 80-09-02-N051
B29: BCY7597 (peptide)
peptide: Ac-CPFGCMKNWSWPIYC
modifications: linker 1-5-15 via TATA
B30: BCY7596 (peptide)
peptide: Ac-CPFGCMKNWSWPIFC
modifications: linker 1-5-15 via TATA
B31: BCY7665 (peptide)
peptide: Ac-CPFGCMKNWSTPIWC
modifications: linker 1-5-15 via TATA
notes: also called 80-09-02-N054
B32: BCY7661 (peptide)
peptide: Ac-CPFGCMKDWSWPIWC
modifications: linker 1-5-15 via TATA
notes: also called 80-09-02-N050
B33: BCY7658 (peptide)
peptide: Ac-CPFGCMSNWSWPIWC
modifications: linker 1-5-15 via TATA
notes: also called 80-09-02-N047
B34: BCY7614 (peptide)
peptide: Ac-CPFGCMPNWSWPIWC
modifications: linker 1-5-15 via TATA
B35: BCY7589 (peptide)
peptide: Ac-CPFGCMKNWSFPIWC
modifications: linker 1-5-15 via TATA
B36: BCY7659 (peptide)
peptide: Ac-CPFGCMDNWSWPIWC
modifications: linker 1-5-15 via TATA
notes: also called 80-09-02-N048
B37: BCY7540 (peptide)
peptide: Ac-CPFGCMKNWSDPIWC
modifications: linker 1-5-15 via TATA
notes: also called 80-09-02-N022
B38: BCY7643 (peptide)
peptide: Ac-QKWCAPLSDYWC[dA]RIC
modifications: linker 4-12-16 via TATA
B39: BCY7556 (peptide)
peptide: [βAla][Sar][Sar][Sar][Sar][Sar]CPF[dD]CM[hArg]NWSWPIWC
modifications: linker 7-11-21 via TATA
B40: BCY8036 (peptide)
peptide: Ac-CPF[dD]CM[hArg]NWSTPPWC
modifications: linker 1-5-15 via TATA
B41: BCY7557 (peptide)
peptide: [βAla][Sar][Sar][Sar][Sar][Sar]CPF[dA]CM[hArg]NWSWPIWC
modifications: linker 7-11-21 via TATA
B42: BCY8039 (peptide)
peptide: Ac-CPF[dD]CL[hArg]NWSTPIWC
modifications: linker 1-5-15 via TATA
B43: BCY7822 (peptide)
peptide: Ac-CPF[dD]CM[hArg]KWSTPIWC
modifications: linker 1-5-15 via TATA
B44: BCY7558 (peptide)
peptide: {Ac-βAla}-[Sar][Sar][Sar][Sar][Sar]CPF[dD]CM[hArg]NWSWPIWC
modifications: linker 6-10-20 via TATA
B45: BCY7821 (peptide)
peptide: Ac-CPF[dD]CK[hArg]NWSTPIWC
modifications: linker 1-5-15 via TATA
B46: BCY7559 (peptide)
peptide: {Ac-βAla}-[Sar][Sar][Sar][Sar][Sar]CPF[dA]CM[hArg]NWSWPIWC
modifications: linker 6-10-20 via TATA
B47: BCY8085 (peptide)
peptide: Ac-CPF[dD]CM[hArg]NWSTPKWC
modifications: linker 1-5-15 via TATA
B48: BCY8038 (peptide)
peptide: Ac-CPF[dD]CL[hArg]NWSTPPWC
modifications: linker 1-5-15 via TATA
B49: BCY8040 (peptide)
peptide: Ac-CPY[dD]CM[hArg]NWSTPIWC
modifications: linker 1-5-15 via TATA
B50: BCY429 (peptide)
peptide: ACPFGCMRNWSWPIWCA
modifications: linker 2-6-16 via TATA
notes: also called 80-09-02-N003
B51: BCY7639 (peptide)
peptide: Ac-QKWCAPL[dA]DYWCNRIC
modifications: linker 4-12-16 via TATA
B52: BCY7608 (peptide)
peptide: Ac-C[Aze]FGCMKNWSWPIWC
modifications: linker 1-5-15 via TATA

What follows are binders tested against T1, human Nectin-4 (human, UniProt Q96NY8 32-349) (assay: FP competition, tracer SEQ ID NO 217).
T1 construct: a Gly32-Ser349 FLAG construct is described only under the SPR assay; also called PVRL4
T1 sequence (looked up): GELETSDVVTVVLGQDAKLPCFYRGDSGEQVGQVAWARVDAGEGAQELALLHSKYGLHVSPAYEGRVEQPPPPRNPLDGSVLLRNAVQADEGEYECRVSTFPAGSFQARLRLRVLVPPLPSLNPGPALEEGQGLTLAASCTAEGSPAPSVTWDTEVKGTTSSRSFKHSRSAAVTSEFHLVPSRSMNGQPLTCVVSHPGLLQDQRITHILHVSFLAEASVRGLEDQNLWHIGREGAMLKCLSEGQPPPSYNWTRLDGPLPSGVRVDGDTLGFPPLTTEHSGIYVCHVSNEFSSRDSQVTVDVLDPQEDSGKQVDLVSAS
Experimental: Peptides were diluted to an appropriate concentration in assay buffer as described in the direct binding assay with a maximum of 5% DMSO, then serially diluted 1 in 2. […] Measurements were conducted as for the direct binding assay, however the gain was determined prior to the first measurement. Data analysis was in Systat Sigmaplot version 12.0 where the mP values were fit to a user defined cubic equation to generate a Ki value: […]

Binder | Ki
B1 | 205 nM
B2 | 246 nM
B3 | 27.2 nM
B4 | 21 nM
B5 | 571 nM
B6 | 101 nM
B7 | 141 nM
B8 | 15.2 nM
B9 | 19 nM
B10 | 522 nM
B11 | 123 nM
B12 | 38 nM
B13 | 31 nM
B14 | 24 nM
B15 | 42 nM
B16 | 26.2 nM
B17 | 34 nM
B18 | 25.5 nM
B19 | 310 nM
B20 | 27.3 nM
B21 | 71.9 nM
B22 | 61 nM
B23 | 70 nM
B24 | 86 nM
B25 | 17.1 nM
B26 | 77 nM

Binder | Ki
B27 | 38.5 nM
B28 | 14.8 nM
B29 | 169 nM
B30 | 353 nM
B31 | 24.1 nM
B32 | 29.4 nM
B33 | 33.6 nM
B34 | 21 nM
B35 | 34.5 nM
B36 | 77.9 nM
B37 | 357 nM
B38 | 19 nM
B39 | 26.1 nM
B40 | 7.5 nM
B41 | 22.5 nM
B42 | 21.4 nM
B43 | 27 nM
B44 | 21.9 nM
B45 | 84 nM
B46 | 17 nM
B47 | 15.1 nM
B48 | 8 nM
B49 | 10.8 nM
B50 | 42.6 nM
B51 | 490 nM
B52 | 42 nM
